According to patent US8030025B2, “Antibodies directed to angiopoietin-1 and angiopoietin-2 and uses thereof” (Amgen Inc., dated 2011):
Where a chain is given by its changes, count along the chain named.

B1: H6L7 (IgG2) (antibody, V domains shown)
VH: EVQLVQSGGGVVQPGRSLRLSCAASGFTFSSYGMHWVRQAPGKGLEWVSYISSSGSTIYYADSVKGRFTISRDNAKNSLYLQMNSLRAEDTAVYYCARDLLDYDIYTGYGYWGQGTLVTVSS
VL: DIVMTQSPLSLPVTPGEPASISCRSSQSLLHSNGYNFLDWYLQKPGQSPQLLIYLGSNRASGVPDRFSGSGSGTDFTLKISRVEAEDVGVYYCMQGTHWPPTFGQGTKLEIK
B2: H4L4 (IgG2) (antibody, V domains shown)
VH: B1 VH with I105L, Y106L
VL: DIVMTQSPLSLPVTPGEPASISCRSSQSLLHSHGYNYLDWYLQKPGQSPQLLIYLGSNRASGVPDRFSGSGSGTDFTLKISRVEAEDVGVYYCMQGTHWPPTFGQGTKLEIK
B3: H4L11 (IgG2) (antibody, V domains shown)
VH: B1 VH with I105L, Y106L
VL: not shown
B4: 536 LC1 (antibody, V domains shown)
VH: B1 VH with Y106L
VL: not shown
B5: H5L7 (antibody, V domains shown)
VH: B1 VH with Y106W
VL: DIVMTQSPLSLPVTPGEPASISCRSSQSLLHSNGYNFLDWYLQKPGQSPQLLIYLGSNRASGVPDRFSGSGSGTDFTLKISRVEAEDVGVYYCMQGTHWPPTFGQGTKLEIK
B6: H4L13 (antibody, V domains shown)
VH: B1 VH with I105L, Y106L
VL: not shown
B7: H11L7 (antibody, V domains shown)
VH: B1 VH with Y106L, Y111M
VL: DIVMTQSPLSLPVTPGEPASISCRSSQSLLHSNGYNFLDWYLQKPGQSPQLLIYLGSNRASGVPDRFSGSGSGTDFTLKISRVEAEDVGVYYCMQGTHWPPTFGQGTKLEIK
B8: H10L7 (antibody, V domains shown)
VH: B1 VH with Y106L, Y111L
VL: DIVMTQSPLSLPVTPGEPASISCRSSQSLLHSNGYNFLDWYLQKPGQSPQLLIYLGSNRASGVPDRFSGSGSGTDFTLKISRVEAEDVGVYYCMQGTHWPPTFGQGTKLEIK
B9: H4L7 (antibody, V domains shown)
VH: B1 VH with I105L, Y106L
VL: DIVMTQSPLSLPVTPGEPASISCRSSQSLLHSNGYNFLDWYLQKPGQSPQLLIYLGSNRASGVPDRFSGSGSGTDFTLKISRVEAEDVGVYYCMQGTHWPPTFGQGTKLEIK
B10: H5L6 (antibody, V domains shown)
VH: B1 VH with Y106W
VL: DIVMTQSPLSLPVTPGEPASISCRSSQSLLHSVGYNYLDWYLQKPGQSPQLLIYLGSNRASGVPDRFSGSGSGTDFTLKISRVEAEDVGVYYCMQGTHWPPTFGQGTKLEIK
B11: H6L7 (antibody, V domains shown)
VH: B1 VH
VL: not shown
B12: H2L7 (antibody, V domains shown)
VH: B1 VH with Y59E, Y106L
VL: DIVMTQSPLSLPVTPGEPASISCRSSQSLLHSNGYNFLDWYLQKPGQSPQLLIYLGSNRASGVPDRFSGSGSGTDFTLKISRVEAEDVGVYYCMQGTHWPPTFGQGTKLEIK
B13: H5L8 (antibody, V domains shown)
VH: B1 VH with Y106W
VL: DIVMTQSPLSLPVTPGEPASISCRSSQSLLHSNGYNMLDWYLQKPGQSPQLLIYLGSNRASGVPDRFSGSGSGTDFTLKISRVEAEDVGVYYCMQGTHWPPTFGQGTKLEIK
B14: H6L8 (antibody, V domains shown)
VH: B1 VH
VL: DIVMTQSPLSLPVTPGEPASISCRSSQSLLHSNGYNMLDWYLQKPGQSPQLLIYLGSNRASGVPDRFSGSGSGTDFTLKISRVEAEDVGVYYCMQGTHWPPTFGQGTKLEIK
B15: H3L7 (antibody, V domains shown)
VH: B1 VH with Y59Q, Y106L
VL: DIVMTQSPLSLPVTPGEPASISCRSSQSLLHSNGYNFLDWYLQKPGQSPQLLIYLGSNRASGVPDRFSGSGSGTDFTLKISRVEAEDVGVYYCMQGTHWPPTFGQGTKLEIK
B16: H5L4 (antibody, V domains shown)
VH: B1 VH with Y106W
VL: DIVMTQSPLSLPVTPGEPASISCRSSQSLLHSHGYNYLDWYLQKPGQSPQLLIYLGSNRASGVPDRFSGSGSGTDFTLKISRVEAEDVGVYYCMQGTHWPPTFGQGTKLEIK
B17: H4L12 (antibody, V domains shown)
VH: B1 VH with I105L, Y106L
VL: not shown
B18: H6L6 (antibody, V domains shown)
VH: B1 VH
VL: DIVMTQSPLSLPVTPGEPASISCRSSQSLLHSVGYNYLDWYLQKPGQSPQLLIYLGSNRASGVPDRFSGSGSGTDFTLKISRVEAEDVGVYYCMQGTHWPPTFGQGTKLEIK
B19: H4L2 (antibody, V domains shown)
VH: B1 VH with I105L, Y106L
VL: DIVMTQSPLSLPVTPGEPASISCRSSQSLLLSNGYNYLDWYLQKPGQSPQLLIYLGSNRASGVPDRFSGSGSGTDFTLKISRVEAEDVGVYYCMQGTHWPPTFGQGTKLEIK
B20: H4L6 (antibody, V domains shown)
VH: B1 VH with I105L, Y106L
VL: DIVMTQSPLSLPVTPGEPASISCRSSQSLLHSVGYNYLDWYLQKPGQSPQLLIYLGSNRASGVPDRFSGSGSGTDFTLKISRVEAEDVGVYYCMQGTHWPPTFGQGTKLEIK
B21: H4L4 (antibody, V domains shown)
VH: B1 VH with I105L, Y106L
VL: not shown
B22: H5L11 (antibody, V domains shown)
VH: B1 VH with Y106W
VL: not shown
B23: H4L11 (antibody, V domains shown)
VH: B1 VH with I105L, Y106L
VL: not shown
B24: H5L9 (antibody, V domains shown)
VH: B1 VH with Y106W
VL: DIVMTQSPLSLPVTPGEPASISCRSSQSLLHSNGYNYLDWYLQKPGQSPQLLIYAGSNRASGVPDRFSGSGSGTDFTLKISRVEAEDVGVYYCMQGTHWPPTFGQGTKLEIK
B25: H5L1 (antibody, V domains shown)
VH: B1 VH with Y106W
VL: not shown
B26: H5L12 (antibody, V domains shown)
VH: B1 VH with Y106W
VL: not shown

Each binder was assayed against Murine Ang1 (mouse, UniProt O08538) (assay: neutralization ELISA; coated angiopoietin vs Tie2-Fc).
Binder B1 has an IC50 of 0.12 nM. Work on B2 yielded an IC50 of 3.3 nM. Work on B3 yielded an IC50 of 7.7 nM. For B4, the IC50 was 305 nM.

What follows are binders tested against Human Ang1 (human, UniProt Q15389) in the same assay as above.
Binder B1 has an IC50 of 0.12 nM. Binder B2 has an IC50 of 3.2 nM. In the case of B3, the IC50 is reported as 17 nM. In the case of B4, the IC50 is reported as 515 nM.

The binders below were run against Rabbit Ang1 (rabbit, UniProt G1SK98) in the same assay as above.
B1 showed an IC50 of 0.18 nM. For B2, the IC50 was 2.8 nM. For B3, the IC50 was 16 nM. B4 was tested, and the IC50 was 502 nM.

Each binder was assayed against Cyno Ang1 (cynomolgus monkey, UniProt A0A2K5VW43) in the same assay as above.
For B1, the IC50 was 0.19 nM. B2 was tested, and the IC50 was 4 nM. B4 showed an IC50 of 531 nM.

The binders below were run against biotinylated human angiopoietin 1 (human, UniProt Q15389, biotin) (assay: HTRF neutralization; biotin-hAng1 vs huTie-2-Fc-APC).
B5 showed an IC50 of 0.07 nM and an IC90 of 0.42 nM. For B6, the IC50 was 0.15 nM and the IC90 was 1.6 nM. In the case of B7, the IC50 is reported as 0.15 nM and the IC90 is reported as 1.2 nM. Binder B8 has an IC50 of 0.15 nM and an IC90 of 2.2 nM. B9 gave an IC50 of 0.23 nM and an IC90 of 2.8 nM. Binder B10 has an IC50 of 0.32 nM and an IC90 of 3.6 nM. Work on B11 yielded an IC50 of 0.06 nM and an IC90 of 0.49 nM. Binder B12 has an IC50 of 0.33 nM and an IC90 of 3.6 nM. B13 was tested, and the IC50 was 0.37 nM and the IC90 was 3.6 nM. For B14, the IC50 was 0.57 nM and the IC90 was 7.7 nM. With B15 the IC50 was 0.58 nM and the IC90 was 7.1 nM. With B16 the IC50 was 0.6 nM and the IC90 was 11 nM. Work on B17 yielded an IC50 of 0.63 nM and an IC90 of 8.7 nM. B18 was tested, and the IC50 was 0.66 nM and the IC90 was 10 nM. B19 showed an IC50 of 0.66 nM and an IC90 of 6.8 nM. Binder B20 has an IC50 of 0.74 nM and an IC90 of 15 nM. With B21 the IC50 was 0.87 nM and the IC90 was 8.2 nM. B22 gave an IC50 of 0.97 nM and an IC90 of 18 nM. B23 was tested, and the IC50 was 7.3 nM and the IC90 was 107 nM. Work on B24 yielded an IC50 of 18 nM and an IC90 of 181 nM.

The binders below were run against Murine Ang2 (mouse, UniProt O35608) (assay: neutralization ELISA; coated angiopoietin vs Tie2-Fc).
B1 gave an IC50 of 0.13 nM. For B2, the IC50 was 0.15 nM. For B3, the IC50 was 0.12 nM. With B4 the IC50 was 0.14 nM.

The binders below were run against Rabbit Ang2 (rabbit, UniProt G1T9B3) in the same assay as above.
Work on B1 yielded an IC50 of 0.15 nM. With B2 the IC50 was 0.15 nM. B3 gave an IC50 of 0.12 nM. Work on B4 yielded an IC50 of 0.2 nM.

Each binder was assayed against Cyno Ang2 (cynomolgus monkey, UniProt A0A2K5VNX6) in the same assay as above.
B1 showed an IC50 of 0.19 nM. Work on B2 yielded an IC50 of 0.24 nM. B3 gave an IC50 of 0.16 nM. B4 showed an IC50 of 0.19 nM.

What follows are binders tested against Human Ang2 (human, UniProt O15123) in the same assay as above.
B1 gave an IC50 of 0.22 nM. In the case of B2, the IC50 is reported as 0.22 nM. B3 showed an IC50 of 0.21 nM. B4 was tested, and the IC50 was 0.27 nM.

What follows are binders tested against biotinylated human angiopoietin 2 (human, UniProt O15123, biotin) (assay: HTRF neutralization; biotin-hAng2 vs huTie-2-Fc-APC).
For B5, the IC50 was 0.07 nM and the IC90 was 0.23 nM. B6 gave an IC50 of 0.06 nM and an IC90 of 0.19 nM. For B7, the IC50 was 0.06 nM and the IC90 was 0.2 nM. Work on B8 yielded an IC50 of 0.06 nM and an IC90 of 0.19 nM. B9 showed an IC50 of 0.06 nM and an IC90 of 0.22 nM. B10 gave an IC50 of 0.07 nM and an IC90 of 0.23 nM. With B11 the IC50 was 0.06 nM and the IC90 was 0.19 nM. For B12, the IC50 was 0.06 nM and the IC90 was 0.2 nM. Work on B13 yielded an IC50 of 0.07 nM and an IC90 of 0.21 nM. With B14 the IC50 was 0.05 nM and the IC90 was 0.19 nM. With B15 the IC50 was 0.06 nM and the IC90 was 0.23 nM. For B16, the IC50 was 0.07 nM and the IC90 was 0.21 nM. Binder B17 has an IC50 of 0.06 nM and an IC90 of 0.21 nM. In the case of B18, the IC50 is reported as 0.06 nM and the IC90 is reported as 0.2 nM. For B19, the IC50 was 0.06 nM and the IC90 was 0.19 nM. B20 was tested, and the IC50 was 0.06 nM and the IC90 was 0.2 nM. B21 showed an IC50 of 0.06 nM and an IC90 of 0.16 nM. Work on B22 yielded an IC50 of 0.08 nM and an IC90 of 0.25 nM. B25 gave an IC50 of 0.06 nM. Binder B23 has an IC50 of 0.05 nM and an IC90 of 0.17 nM. B26 was tested, and the IC50 was 0.07 nM. B24 showed an IC50 of 0.19 nM and an IC90 of 1.57 nM.
